# T1: G9a and GLP (Homo sapiens, UniProt Q96KQ7+Q9H9B1)
# T1 sequence (Q96KQ7 2-1210 limits assumed): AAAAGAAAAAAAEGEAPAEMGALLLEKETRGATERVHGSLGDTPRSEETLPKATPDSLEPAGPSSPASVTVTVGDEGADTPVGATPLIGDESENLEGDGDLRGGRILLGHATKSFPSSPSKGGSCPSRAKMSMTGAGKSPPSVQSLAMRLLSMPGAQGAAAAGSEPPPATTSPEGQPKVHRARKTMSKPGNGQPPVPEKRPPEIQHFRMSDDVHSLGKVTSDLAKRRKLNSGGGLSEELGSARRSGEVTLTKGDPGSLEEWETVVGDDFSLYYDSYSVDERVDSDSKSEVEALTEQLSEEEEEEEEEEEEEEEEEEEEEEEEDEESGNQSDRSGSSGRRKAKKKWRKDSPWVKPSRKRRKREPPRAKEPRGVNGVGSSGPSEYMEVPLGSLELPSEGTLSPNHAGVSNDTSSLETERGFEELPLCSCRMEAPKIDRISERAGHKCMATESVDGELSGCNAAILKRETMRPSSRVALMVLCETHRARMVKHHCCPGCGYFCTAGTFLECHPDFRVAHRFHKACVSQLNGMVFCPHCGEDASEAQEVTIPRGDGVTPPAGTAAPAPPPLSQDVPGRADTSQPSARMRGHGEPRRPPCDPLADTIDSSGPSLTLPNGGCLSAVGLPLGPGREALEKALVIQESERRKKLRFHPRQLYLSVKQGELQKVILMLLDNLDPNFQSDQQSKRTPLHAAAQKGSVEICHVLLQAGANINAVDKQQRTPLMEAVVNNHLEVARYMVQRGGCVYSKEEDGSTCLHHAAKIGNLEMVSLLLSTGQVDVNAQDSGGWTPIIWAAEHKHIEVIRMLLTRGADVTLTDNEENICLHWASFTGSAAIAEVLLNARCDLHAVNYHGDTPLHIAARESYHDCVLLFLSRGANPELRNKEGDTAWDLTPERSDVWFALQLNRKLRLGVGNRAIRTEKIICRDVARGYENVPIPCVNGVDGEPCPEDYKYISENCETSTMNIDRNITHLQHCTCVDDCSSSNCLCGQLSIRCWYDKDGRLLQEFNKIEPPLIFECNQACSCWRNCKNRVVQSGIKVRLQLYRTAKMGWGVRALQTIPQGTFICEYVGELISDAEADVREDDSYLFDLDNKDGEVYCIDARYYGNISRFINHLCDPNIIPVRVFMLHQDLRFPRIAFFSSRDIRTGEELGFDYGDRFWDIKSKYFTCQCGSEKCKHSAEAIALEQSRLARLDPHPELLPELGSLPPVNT
# T1 sequence (Q9H9B1 2-1298 limits assumed): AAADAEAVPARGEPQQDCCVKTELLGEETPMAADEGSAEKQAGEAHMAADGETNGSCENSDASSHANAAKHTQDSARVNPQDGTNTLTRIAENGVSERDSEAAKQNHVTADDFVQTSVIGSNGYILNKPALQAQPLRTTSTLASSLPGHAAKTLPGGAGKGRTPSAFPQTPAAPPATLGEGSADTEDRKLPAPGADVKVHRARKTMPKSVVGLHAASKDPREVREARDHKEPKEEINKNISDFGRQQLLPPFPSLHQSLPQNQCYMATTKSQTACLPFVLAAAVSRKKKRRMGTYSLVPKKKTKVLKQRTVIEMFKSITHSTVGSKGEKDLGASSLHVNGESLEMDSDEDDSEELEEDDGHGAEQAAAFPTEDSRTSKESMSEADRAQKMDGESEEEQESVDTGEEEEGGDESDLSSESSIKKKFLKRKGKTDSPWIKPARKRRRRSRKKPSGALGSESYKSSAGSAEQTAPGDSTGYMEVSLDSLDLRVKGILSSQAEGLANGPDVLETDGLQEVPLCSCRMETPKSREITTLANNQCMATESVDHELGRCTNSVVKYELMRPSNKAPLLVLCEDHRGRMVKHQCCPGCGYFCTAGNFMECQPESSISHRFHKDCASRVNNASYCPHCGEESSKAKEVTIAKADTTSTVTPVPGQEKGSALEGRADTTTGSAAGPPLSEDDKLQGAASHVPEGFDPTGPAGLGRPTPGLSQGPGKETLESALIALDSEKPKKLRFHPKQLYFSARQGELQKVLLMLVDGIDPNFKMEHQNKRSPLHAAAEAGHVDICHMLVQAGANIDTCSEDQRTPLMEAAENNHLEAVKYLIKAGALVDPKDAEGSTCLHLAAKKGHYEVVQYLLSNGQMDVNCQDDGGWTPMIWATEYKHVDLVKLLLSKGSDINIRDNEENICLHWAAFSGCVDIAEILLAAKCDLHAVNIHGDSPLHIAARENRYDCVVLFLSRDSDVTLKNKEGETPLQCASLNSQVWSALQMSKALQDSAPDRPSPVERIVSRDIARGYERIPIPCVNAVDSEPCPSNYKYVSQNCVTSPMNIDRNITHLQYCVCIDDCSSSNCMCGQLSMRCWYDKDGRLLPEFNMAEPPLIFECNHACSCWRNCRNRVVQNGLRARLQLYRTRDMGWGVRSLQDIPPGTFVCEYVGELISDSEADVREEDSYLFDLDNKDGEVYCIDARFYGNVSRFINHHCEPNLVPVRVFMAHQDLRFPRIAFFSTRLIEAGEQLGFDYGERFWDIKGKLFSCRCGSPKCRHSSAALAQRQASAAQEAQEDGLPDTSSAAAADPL
# B1: TCERG1 (protein, UniProt O14776 1-1098, looked up)
# Transcription elongation …: MAERGGDGGESERFNPGELRMAQQQALRFRGPAPPPNAVMRGPPPLMRPPPPFGMMRGPPPPPRPPFGRPPFDPNMPPMPPPGGIPPPMGPPHLQRPPFMPPPMSSMPPPPGMMFPPGMPPVTAPGTPALPPTEEIWVENKTPDGKVYYYNARTRESAWTKPDGVKVIQQSELTPMLAAQAQVQAQAQAQAQAQAQAQAQAQAQAQAQAQAQAQAQAQAQAQAQAQAQAQAQAQAQAQAQAQVQAQVQAQVQAQAVGASTPTTSSPAPAVSTSTSSSTPSSTTSTTTTATSVAQTVSTPTTQDQTPSSAVSVATPTVSVSTPAPTATPVQTVPQPHPQTLPPAVPHSVPQPTTAIPAFPPVMVPPFRVPLPGMPIPLPGVAMMQIVSCPYVKTVATTKTGVLPGMAPPIVPMIHPQVAIAASPATLAGATAVSEWTEYKTADGKTYYYNNRTLESTWEKPQELKEKEKLEEKIKEPIKEPSEEPLPMETEEEDPKEEPIKEIKEEPKEEEMTEEEKAAQKAKPVATAPIPGTPWCVVWTGDERVFFYNPTTRLSMWDRPDDLIGRADVDKIIQEPPHKKGMEELKKLRHPTPTMLSIQKWQFSMSAIKEEQELMEEINEDEPVKAKKRKRDDNKDIDSEKEAAMEAEIKAARERAIVPLEARMKQFKDMLLERGVSAFSTWEKELHKIVFDPRYLLLNPKERKQVFDQYVKTRAEEERREKKNKIMQAKEDFKKMMEEAKFNPRATFSEFAAKHAKDSRFKAIEKMKDREALFNEFVAAARKKEKEDSKTRGEKIKSDFFELLSNHHLDSQSRWSKVKDKVESDPRYKAVDSSSMREDLFKQYIEKIAKNLDSEKEKELERQARIEASLREREREVQKARSEQTKEIDREREQHKREEAIQNFKALLSDMVRSSDVSWSDTRRTLRKDHRWESGSLLEREEKEKLFNEHIEALTKKKREHFRQLLDETSAITLTSTWKEVKKIIKEDPRCIKFSSSDRKKQREFEEYIRDKYITAKADFRTLLKETKFITYRSKKLIQESDQHLKDVEKILQNDKRYLVLDCVPEERRKLIVAYVDDLDRRGPPPPPTASEPTRRSTK
# B2: FAM98B (protein, UniProt Q52LJ0 1-433, looked up)
# Protein FAM98B: MRGPEPGPQPTMEGDVLDTLEALGYKGPLLEEQALTKAAEGGLSSPEFSELCIWLGSQIKSLCNLEESITSAGRDDLESFQLEISGFLKEMACPYSVLISGDIKDRLKKKEDCLKLLLFLSTELQASQILQNKKHKNSQLDKNSEVYQEVQAMFDTLGIPKSTTSDIPHMLNQVESKVKDILSKVQKNHVGKPLLKMDLNSEQAEQLERINDALSCEYECRRRMLMKRLDVTVQSFGWSDRAKVKTDDIARIYQPKRYALSPKTTITMAHLLAAREDLSKIIRTSSGTSREKTACAINKVLMGRVPDRGGRPNEIEPPPPEMPPWQKRQEGGGGRGGWGGGGGGGGRGGGGGGGGRGGWGGGGGGWGGGGGGGGGWGGGGGGGRGGFQGRGDYGGRGGYGGRGGYGGRGYGDPYGGGGGGGGGGGGGGGYRRY
# B3: PUM1 (protein, UniProt Q14671 2-1186, looked up)
# Pumilio homolog 1: SVACVLKRKAVLWQDSFSPHLKHHPQEPANPNMPVVLTSGTGSQAQPQPAANQALAAGTHSSPVPGSIGVAGRSQDDAMVDYFFQRQHGEQLGGGGSGGGGYNNSKHRWPTGDNIHAEHQVRSMDELNHDFQALALEGRAMGEQLLPGKKFWETDESSKDGPKGIFLGDQWRDSAWGTSDHSVSQPIMVQRRPGQSFHVNSEVNSVLSPRSESGGLGVSMVEYVLSSSPGDSCLRKGGFGPRDADSDENDKGEKKNKGTFDGDKLGDLKEEGDVMDKTNGLPVQNGIDADVKDFSRTPGNCQNSANEVDLLGPNQNGSEGLAQLTSTNGAKPVEDFSNMESQSVPLDPMEHVGMEPLQFDYSGTQVPVDSAAATVGLFDYNSQQQLFQRPNALAVQQLTAAQQQQYALAAAHQPHIGLAPAAFVPNPYIISAAPPGTDPYTAGLAAAATLGPAVVPHQYYGVTPWGVYPASLFQQQAAAAAAATNSANQQTTPQAQQGQQQVLRGGASQRPLTPNQNQQGQQTDPLVAAAAVNSALAFGQGLAAGMPGYPVLAPAAYYDQTGALVVNAGARNGLGAPVRLVAPAPVIISSSAAQAAVAAAAASANGAAGGLAGTTNGPFRPLGTQQPQPQPQQQPNNNLASSSFYGNNSLNSNSQSSSLFSQGSAQPANTSLGFGSSSSLGATLGSALGGFGTAVANSNTGSGSRRDSLTGSSDLYKRTSSSLTPIGHSFYNGLSFSSSPGPVGMPLPSQGPGHSQTPPPSLSSHGSSSSLNLGGLTNGSGRYISAAPGAEAKYRSASSASSLFSPSSTLFSSSRLRYGMSDVMPSGRSRLLEDFRNNRYPNLQLREIAGHIMEFSQDQHGSRFIQLKLERATPAERQLVFNEILQAAYQLMVDVFGNYVIQKFFEFGSLEQKLALAERIRGHVLSLALQMYGCRVIQKALEFIPSDQQNEMVRELDGHVLKCVKDQNGNHVVQKCIECVQPQSLQFIIDAFKGQVFALSTHPYGCRVIQRILEHCLPDQTLPILEELHQHTEQLVQDQYGNYVIQHVLEHGRPEDKSKIVAEIRGNVLVLSQHKFASNVVEKCVTHASRTERAVLIDEVCTMNDGPHSALYTMMKDQYANYVVQKMIDVAEPGQRKIVMHKIRPHIATLRKYTYGKHILAKLEKYYMKNGVDLGPICGPPNGII
# B4: HNRNPC (protein, UniProt P07910 2-306, looked up)
# Heterogeneous nuclear …: ASNVTNKTDPRSMNSRVFIGNLNTLVVKKSDVEAIFSKYGKIVGCSVHKGFAFVQYVNERNARAAVAGEDGRMIAGQVLDINLAAEPKVNRGKAGVKRSAAEMYGSVTEHPSPSPLLSSSFDLDYDFQRDYYDRMYSYPARVPPPPPIARAVVPSKRQRVSGNTSRRGKSGFNSKSGQRGSSKSGKLKGDDLQAIKKELTQIKQKVDSLLENLEKIEKEQSKQAVEMKNDKSEEEQSSSSVKKDETNVKMESEGGADDSAEEGDLLDDDDNEDRGDDQLELIKDDEKEAEEGEDDRDSANGEDDS
# System: 3×MBT domain of L3MBTL1
# Experiment: Triple SILAC pull-down, 3xMBT/3xMBTD355N ratio (cytoplasmic, nuclear and chromatin fractions of 293T cells);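 further: proteins quantified with MaxQuant, requiring at least two unique peptides and quantification in both label directions, normalized to the mean of proteins from a digested loading control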
# Format: binding, human
# Details: SILAC ratio, pull-down 3xMBT vs 3xMBTD355N; experiment with UNC0638 in heavy SILAC media
row,Molecule,3xMBT/D355N UNC Heavy [log base 2]
1,B1,2.34
2,B2,3.88
3,B3,2.08
4,B4,2.39

# Same assay, conditions: SILAC ratio, pull-down 3xMBT vs 3xMBTD355N; experiment with UNC0638 in light SILAC media
row,Molecule,3xMBT/D355N UNC Light [log base 2]
1,B1,3.64
2,B2,3.18
3,B3,1.66
4,B4,2.62

# Biological target: T1, G9a and GLP
# Experiment: Triple SILAC pull-down after UNC0638 treatment of 293T cells, DMSO/UNC0638 ratio of protein captured by 3×MBT;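 further: mass spectrometry (Q-Exactive) SILAC quantitation, DMSO/UNC0638 ratio computed after subtracting 3×MBTD355N mutant pull-down background, only proteins with at least twofold 3×MBT over mutant signal considered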
# Format: cell-based
# Design: cells were treated for 24 hours with UNC0638 at 2.5 μM or DMSO vehicle control; endogenous in cells; host or cells: HEK 293T
# Details: SILAC ratio DMSO/UNC0638 of protein pulled down with 3xMBT; UNC0638 in heavy SILAC media
row,Relative to UNC0638 UNC Heavy [log base 2],Molecule
1,−0.10,B1
2,0.11,B2
3,0.35,B3
4,0.07,B4

# Same assay, conditions: SILAC ratio DMSO/UNC0638 of protein pulled down with 3xMBT; UNC0638 in light SILAC media
row,Relative to UNC0638 UNC Light [log base 2],Molecule
1,0.37,B1
2,0.14,B2
3,−0.08,B3
4,0.20,B4

# Same assay, conditions: average of UNC Light and UNC Heavy experiments
row,Relative to UNC0638 Average [log base 2],Molecule
1,0.13,B1
2,0.13,B2
3,0.13,B3
4,0.13,B4
